According to patent US20060052296A1 (TEMPLE UNIVERSITY OF THE COMMONWEALTH SYSTEM OF HIGHER …, published 2006):

Assays:
[1] = biological target: p53 in NIH 3T3 cell protein extract (mouse (endogenous in mouse fibroblast …, UniProt P02340 1-390)); test: co-immunoprecipitation with anti-p53 antibody pAb 421, Western blot with rabbit anti-Agno
GST alone [2] = biological target: T1, GST alone (UniProt P08515 1-218 = GST); test: GST pull-down from NIH 3T3 cell extract, Western blot with anti-agnoprotein antibody
GST alone [3] = biological target: T1, GST alone; test: GST pull-down, autoradiography

T1 sequence (P08515 whole entry): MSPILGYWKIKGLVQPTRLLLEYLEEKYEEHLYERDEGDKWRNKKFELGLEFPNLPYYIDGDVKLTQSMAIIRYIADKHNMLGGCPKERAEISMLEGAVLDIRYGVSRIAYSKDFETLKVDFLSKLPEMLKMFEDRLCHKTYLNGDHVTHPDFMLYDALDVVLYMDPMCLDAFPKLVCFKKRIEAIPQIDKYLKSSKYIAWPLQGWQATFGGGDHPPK
Chain of p53 in NIH 3T3 cell protein extract (mouse (P02340 whole entry): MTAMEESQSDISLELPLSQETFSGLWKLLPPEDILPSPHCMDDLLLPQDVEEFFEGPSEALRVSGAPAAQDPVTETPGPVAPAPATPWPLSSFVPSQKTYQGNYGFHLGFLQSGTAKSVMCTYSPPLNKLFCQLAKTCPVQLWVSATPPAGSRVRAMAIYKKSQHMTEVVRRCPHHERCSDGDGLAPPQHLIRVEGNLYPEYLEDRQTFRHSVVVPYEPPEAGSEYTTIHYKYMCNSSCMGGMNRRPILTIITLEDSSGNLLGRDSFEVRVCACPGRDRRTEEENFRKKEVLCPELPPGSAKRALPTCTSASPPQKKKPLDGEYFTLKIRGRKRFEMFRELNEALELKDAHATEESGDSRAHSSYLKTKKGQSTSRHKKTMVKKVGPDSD

B1: YFP-agnoprotein (other)
chain: MVLRQLSRKASVKVSKTWSGTKKRAQRILIFLLEFLLDFCTGEDSVDGKKRQRHSGLTEQTYSALPEPKAT
notes: also called GFP-Agnoprotein; fusion agnoprotein
B1: binds [1]; no binding (GST alone [2]).

B2: in vitro synthesized [35S]-labeled agnoprotein (other)
chain: MVLRQLSRKASVKVSKTWSGTKKRAQRILIFLLEFLLDFCTGEDSVDGKKRQRHSGLTEQTYSALPEPKAT
notes: also called in vitro translated [35S]-labeled agnoprotein
B2: no binding (GST alone [3]).
